In PMC6105217, “Modification of translation factor aIF5A from Sulfolobus solfataricus” (Extremophiles, 2018):

Molecular target: the molecule itself
Assay: SEC-MALS; Superdex S200 10/300 GL increase, 20 mM Tris-HCl pH 7.5, 150 mM NaCl, 25 °C; protein pre-incubated at 65 °C for 10 min, 100 µl injected at 1.5 mg/ml

B1: recombinant aDHS-C-His (enzyme, Sulfolobus solfataricus, UniProt Q97ZF1 1-312, looked up)
chain: MINREDLLKNPVEDITLSDLKKYNDIVSVFDKIYGFSSEGIVNGSKILKEMIKNADLRFLSFTANLVSTGLRGLFADLIKKGYFNIVVTTGGTIDHDLARSFGGVYYKGSFDIDDTMLKDLEIHRLGNVLVPFESYGKVIEDVVRKFLPEITKDRKEISAYELLWEFGKRITDSNSILRAAYDKNVPIIVPGILDGSFGTNLFIQSQFLNFRINLFEDMRLIKDLIFSSKKSGALIIGGGISKHHTIWWNQFKDGLNYAIYITTAQEYDGSLSGAKPREAISWNKIRPDAKHVTIYGDATIIVPILAASLLS
notes: deoxyhypusine synthase, Sulfolobus solfataricus P2, ORF SSO0967, amplified by PCR from genomic DNA; source: E. coli BL21 (DE3) (pQE-70-DHS-C-His), purified (Ni-NTA); not shown: His-tag, C-terminal, kept
B1 was tested, and the “stoichiometry N” value was 4.
